From patent US6482799B1, “Self-preserving multipurpose ophthalmic solutions incorporating a polypeptide antimicrobial” (The Regents of the University of California, priority 1999, dated 2002)
Where no end group is shown, it is not given here.

Assay: Corneal penetration of radioactive topical ocular indolicidin formulation
Format: in vivo, New Zealand White Rabbits
Procedure: The objective of this study was to determine the corneal penetration potential of a ^3H-labelled indolicidin molecule. The ^3H labeled L-indolicidin; L-IND was tested for corneal penetration using New Zealand White Rabbits (Western Oregon Rabbit Co.). The rabbit is one of the model species for the assessment of toxicity and is one of the species recommended for that purpose by toxicity testing guidelines of all regulatory agencies. See “Animal Models in the Evaluation of Chemotherapy of Ocular Infections” in Experimental Models in Antimicrobial Chemotherapy, Vol 1, p 187-211.
Administration of ^3H-L-IND was by epicomeal application into both eyes, 20 μL L-IND once hourly for six applications. The animals were euthanized immediately prior to harvesting of aqueous humor.
Male animals were initiated as young adults and weighed 2-3 kg. Two animals were assigned to the test (2/group; one treatment group). […]
Clinical signs were evaluated immediately after 1st dose administration and immediately prior to euthanasia and necroscopy. […]
Evaluations were confined to the eye. […] An estimate of the total volume of aqueous humor harvested was recorded and analyzed for ^3H content. […]
The two samples of aqueous humor from each of the rabbits were analyzed for their radioactivity levels. […]

Substance: ^3H-Indolicidin: ^3H-labelled indolicidin molecule for the corneal penetration study (ILPWKWPWWPWRR-NH2; also: tritium label; UniProt P33046 131-143, looked up)
- radioactivity level in aqueous humor (20 μL epicorneal, once hourly for six applications, both eyes): equal to that of background counts
- corneal penetration (topical ocular, six applications): did not penetrate the cornea
